Source: publication PMC10338342

Experiments:
[1] = biological target: nucleosome core particle: human histone octamer (H2A, H2B, H3.1, H4) wrapped by DNA (human) (UniProt P04908); assay: mass photometry; CLOCK-BMAL1 with NCP SHL+5.8-tandem (2 E-boxes with 7-bp spacing in a 601 sequence), 10 and 60 nM (1:6), 20 mM Tris-HCl pH 7.5, 100 mM KCl, 0.5 mM TCEP
[2] = biological target: nucleosome core particle: human histone octamer (H2A, H2B, H3.1, H4) wrapped by DNA (human) (UniProt P04908); assay: mass photometry; CLOCK-BMAL1 with NCP SHL+5.8 (single E-box), 10 and 60 nM (1:6), 20 mM Tris-HCl pH 7.5, 100 mM KCl, 0.5 mM TCEP
[3] = biological target: nucleosome core particle: human histone octamer (H2A, H2B, H3.1, H4) wrapped by DNA (human) (UniProt P04908); assay: mass photometry; CLOCK-BMAL1 with NCP SHL−6.2, 10 and 60 nM (1:6), 20 mM Tris-HCl pH 7.5, 100 mM KCl, 0.5 mM TCEP, 30 min room temperature
[4] = biological target: nucleosome core particle with H2B(T122C–biotin): H2A–H2B(T122C–biotin)–H3.1–H4 octamer wrapped by DNA (human) (UniProt P04908); assay: FRET or BRET; LANCE TR-FRET forward titration: increasing His–MYC-MAX added to H2B(T122C)-biotinylated NCP SHL+5.1 with Eu-streptavidin, in the presence or absence of OCT4
[5] = tested on: MYC bHLH-LZ;MAX bHLH-LZ (human;human), P01106-1+P61244; assay: TR-FRET; conditions: about threefold vs without, EMSA/SeEN-seq: 20 mM Tris-HCl pH 7.5, 75 mM NaCl, 10 mM KCl, 1 mM MgCl2, 0.1 mg/ml BSA, 1 mM DTT, room temp ~1 h, TR-FRET: 20 mM Tris-HCl pH 7.5, 75 or 125 mM …
[6] = biological target: CLOCK bHLH PAS-AB;BMAL1 bHLH PAS-AB WT (mouse;mouse) (UniProt O08785+Q9WTL8); assay: mass photometry; conditions: EMSA/SeEN-seq: 20 mM Tris-HCl pH 7.5, 75 mM NaCl, 10 mM KCl, 1 mM MgCl2, 0.1 mg/ml BSA, 1 mM DTT, room temp ~1 h, TR-FRET: 20 mM Tris-HCl pH 7.5, 75 or 125 mM …
[7] = tested on: MYC bHLH-LZ;MAX bHLH-LZ (human;human), P01106-1+P61244; assay: SeEN-seq (EMSA + NGS); conditions: 62.5 nM TF; EMSA/SeEN-seq: 20 mM Tris-HCl pH 7.5, 75 mM NaCl, 10 mM KCl, 1 mM MgCl2, 0.1 mg/ml BSA, 1 mM DTT, room temp ~1 h; TR-FRET: 20 mM Tris-HCl pH 7.5, 75 or 125 mM …
[8] = biological target: nucleosome core particle: human histone octamer (H2A, H2B, H3.1, H4) wrapped by DNA, P04908;P06899;P68431;P62805; assay: smTIRF colocalization single-molecule imaging; conditions: substrate NCP

MYC bHLH-LZ;MAX bHLH-LZ (human;human), P01106-1+P61244, sequence (P01106 366-452, chain 1 of 2): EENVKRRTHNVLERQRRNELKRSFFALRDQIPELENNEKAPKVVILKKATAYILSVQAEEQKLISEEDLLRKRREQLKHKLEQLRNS
MYC bHLH-LZ;MAX bHLH-LZ (human;human), P01106-1+P61244, sequence (P61244 22-102, chain 2 of 2): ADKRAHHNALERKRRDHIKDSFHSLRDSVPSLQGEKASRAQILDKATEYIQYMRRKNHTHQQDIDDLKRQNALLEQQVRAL

CLOCK-BMAL1 bHLH PAS-AB heterodimer (from UniProt O08785 26-395; Q9WTL8 62-441) (complex)
percent bound (total amount of CLOCK-BMAL1 bound, tandem E-boxes) [1]: 51%
N (minority species) [2]: 2
percent bound (total amount of CLOCK-BMAL1 bound, single E-box) [2]: 19%
stoichiometry N [3]: 1

MYC-MAX bHLH LZ heterodimer (from UniProt P61244 22-102) (complex)
fold strengthening of the binding isotherm in the presence of OCT4 [4]: 3 fold

NCP SHL+5.1 for TR-FRET
binding signal (fold tighter with OCT4) [5]: 3

NCP SHL+5.8 (W601)
binding signal ([6]; 20 nM NCP, single E-box): 19 % bound

NCP SHL+5.8-tandem
binding signal ([6]; tandem E-box): 51 % bound

SeEN-seq NCP, E-box at SHL+5.8
binding signal (log2 enrichment) [7]: 3.5

SeEN-seq NCP, E-box at SHL-6.2
binding signal (log2 enrichment) [7]: 2.2

wild-type MYC-MAX–Spy, labelled with JF549–SpyCatcher (from UniProt P61244) MAX:Y73A; MAX:R76A
other: dwell time τoff,1 [8]: 0.86 s
other: dwell time τoff,2 [8]: 22 s

wild-type MYC-MAX–Spy, labelled with JF549–SpyCatcher (from UniProt P61244) MYC:S405Y; MYC:A408R
other: dwell time τoff,1 [8]: 0.6 s
